In PMC6502868, “Architecture of Saccharomyces cerevisiae SAGA complex” (Cell Discovery, 2019):

T1: Spt7 (S. cerevisiae, UniProt P35177 1-1332)
T1 construct: Spt7, S. cerevisiae, second largest SAGA subunit (SPT module); source: endogenous, in the native SAGA complex purified from fermented S. cerevisiae cells
T1 sequence (looked up): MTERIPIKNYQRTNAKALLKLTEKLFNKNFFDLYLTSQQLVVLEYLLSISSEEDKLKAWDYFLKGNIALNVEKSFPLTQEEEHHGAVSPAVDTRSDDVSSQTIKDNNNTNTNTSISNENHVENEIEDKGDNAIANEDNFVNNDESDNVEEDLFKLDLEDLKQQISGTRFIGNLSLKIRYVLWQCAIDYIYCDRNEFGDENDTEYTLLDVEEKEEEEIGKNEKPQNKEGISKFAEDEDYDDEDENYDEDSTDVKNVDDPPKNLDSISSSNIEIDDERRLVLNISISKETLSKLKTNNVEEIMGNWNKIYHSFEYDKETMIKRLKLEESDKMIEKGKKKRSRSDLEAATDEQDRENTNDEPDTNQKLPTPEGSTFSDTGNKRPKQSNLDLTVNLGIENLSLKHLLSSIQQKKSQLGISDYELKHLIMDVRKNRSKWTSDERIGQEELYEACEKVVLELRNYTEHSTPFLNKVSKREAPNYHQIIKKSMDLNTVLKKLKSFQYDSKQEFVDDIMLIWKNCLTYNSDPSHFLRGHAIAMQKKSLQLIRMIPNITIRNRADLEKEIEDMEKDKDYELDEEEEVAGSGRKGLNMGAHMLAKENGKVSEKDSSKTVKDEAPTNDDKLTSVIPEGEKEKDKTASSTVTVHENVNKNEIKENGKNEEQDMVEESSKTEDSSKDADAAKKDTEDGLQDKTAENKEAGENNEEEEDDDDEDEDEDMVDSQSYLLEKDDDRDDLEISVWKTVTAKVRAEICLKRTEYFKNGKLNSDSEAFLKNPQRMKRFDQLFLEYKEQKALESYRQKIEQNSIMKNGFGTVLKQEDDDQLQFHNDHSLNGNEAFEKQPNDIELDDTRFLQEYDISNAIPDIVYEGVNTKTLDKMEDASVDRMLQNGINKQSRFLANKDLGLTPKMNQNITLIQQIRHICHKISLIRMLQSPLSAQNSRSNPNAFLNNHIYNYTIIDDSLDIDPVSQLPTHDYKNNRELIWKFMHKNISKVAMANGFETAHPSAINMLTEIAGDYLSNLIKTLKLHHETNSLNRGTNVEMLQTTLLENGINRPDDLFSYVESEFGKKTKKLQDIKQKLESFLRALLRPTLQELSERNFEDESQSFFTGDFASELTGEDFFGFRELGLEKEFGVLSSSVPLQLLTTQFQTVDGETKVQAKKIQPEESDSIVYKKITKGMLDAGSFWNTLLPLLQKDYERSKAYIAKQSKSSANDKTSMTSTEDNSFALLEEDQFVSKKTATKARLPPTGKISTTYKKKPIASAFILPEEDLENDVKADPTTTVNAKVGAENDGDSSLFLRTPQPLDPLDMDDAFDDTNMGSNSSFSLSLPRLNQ


How the values were obtained:
Tra1 = target: T2, Tra1 (S. cerevisiae, UniProt P38811 1-3744); assay: cross-linking; chemical cross-linking of proteins coupled with mass spectrometry (CXMS) on the purified native SAGA complex; 139 unique inter- and 184 unique intra-subunit cross-linking pairs; details: both partners purified
T2 construct: Tra1, S. cerevisiae, largest SAGA subunit (SPT module), 3744 residues as printed; Endogenous subunit; Purification methods and any tag are in the Supplementary Materials; also called Tra1_(SAGA); lobe A; source: endogenous, in the native SAGA complex purified from fermented S. cerevisiae cells

Spt7 = target: T1, Spt7; assay: as above; details: both partners purified

T2 sequence (P38811 whole entry): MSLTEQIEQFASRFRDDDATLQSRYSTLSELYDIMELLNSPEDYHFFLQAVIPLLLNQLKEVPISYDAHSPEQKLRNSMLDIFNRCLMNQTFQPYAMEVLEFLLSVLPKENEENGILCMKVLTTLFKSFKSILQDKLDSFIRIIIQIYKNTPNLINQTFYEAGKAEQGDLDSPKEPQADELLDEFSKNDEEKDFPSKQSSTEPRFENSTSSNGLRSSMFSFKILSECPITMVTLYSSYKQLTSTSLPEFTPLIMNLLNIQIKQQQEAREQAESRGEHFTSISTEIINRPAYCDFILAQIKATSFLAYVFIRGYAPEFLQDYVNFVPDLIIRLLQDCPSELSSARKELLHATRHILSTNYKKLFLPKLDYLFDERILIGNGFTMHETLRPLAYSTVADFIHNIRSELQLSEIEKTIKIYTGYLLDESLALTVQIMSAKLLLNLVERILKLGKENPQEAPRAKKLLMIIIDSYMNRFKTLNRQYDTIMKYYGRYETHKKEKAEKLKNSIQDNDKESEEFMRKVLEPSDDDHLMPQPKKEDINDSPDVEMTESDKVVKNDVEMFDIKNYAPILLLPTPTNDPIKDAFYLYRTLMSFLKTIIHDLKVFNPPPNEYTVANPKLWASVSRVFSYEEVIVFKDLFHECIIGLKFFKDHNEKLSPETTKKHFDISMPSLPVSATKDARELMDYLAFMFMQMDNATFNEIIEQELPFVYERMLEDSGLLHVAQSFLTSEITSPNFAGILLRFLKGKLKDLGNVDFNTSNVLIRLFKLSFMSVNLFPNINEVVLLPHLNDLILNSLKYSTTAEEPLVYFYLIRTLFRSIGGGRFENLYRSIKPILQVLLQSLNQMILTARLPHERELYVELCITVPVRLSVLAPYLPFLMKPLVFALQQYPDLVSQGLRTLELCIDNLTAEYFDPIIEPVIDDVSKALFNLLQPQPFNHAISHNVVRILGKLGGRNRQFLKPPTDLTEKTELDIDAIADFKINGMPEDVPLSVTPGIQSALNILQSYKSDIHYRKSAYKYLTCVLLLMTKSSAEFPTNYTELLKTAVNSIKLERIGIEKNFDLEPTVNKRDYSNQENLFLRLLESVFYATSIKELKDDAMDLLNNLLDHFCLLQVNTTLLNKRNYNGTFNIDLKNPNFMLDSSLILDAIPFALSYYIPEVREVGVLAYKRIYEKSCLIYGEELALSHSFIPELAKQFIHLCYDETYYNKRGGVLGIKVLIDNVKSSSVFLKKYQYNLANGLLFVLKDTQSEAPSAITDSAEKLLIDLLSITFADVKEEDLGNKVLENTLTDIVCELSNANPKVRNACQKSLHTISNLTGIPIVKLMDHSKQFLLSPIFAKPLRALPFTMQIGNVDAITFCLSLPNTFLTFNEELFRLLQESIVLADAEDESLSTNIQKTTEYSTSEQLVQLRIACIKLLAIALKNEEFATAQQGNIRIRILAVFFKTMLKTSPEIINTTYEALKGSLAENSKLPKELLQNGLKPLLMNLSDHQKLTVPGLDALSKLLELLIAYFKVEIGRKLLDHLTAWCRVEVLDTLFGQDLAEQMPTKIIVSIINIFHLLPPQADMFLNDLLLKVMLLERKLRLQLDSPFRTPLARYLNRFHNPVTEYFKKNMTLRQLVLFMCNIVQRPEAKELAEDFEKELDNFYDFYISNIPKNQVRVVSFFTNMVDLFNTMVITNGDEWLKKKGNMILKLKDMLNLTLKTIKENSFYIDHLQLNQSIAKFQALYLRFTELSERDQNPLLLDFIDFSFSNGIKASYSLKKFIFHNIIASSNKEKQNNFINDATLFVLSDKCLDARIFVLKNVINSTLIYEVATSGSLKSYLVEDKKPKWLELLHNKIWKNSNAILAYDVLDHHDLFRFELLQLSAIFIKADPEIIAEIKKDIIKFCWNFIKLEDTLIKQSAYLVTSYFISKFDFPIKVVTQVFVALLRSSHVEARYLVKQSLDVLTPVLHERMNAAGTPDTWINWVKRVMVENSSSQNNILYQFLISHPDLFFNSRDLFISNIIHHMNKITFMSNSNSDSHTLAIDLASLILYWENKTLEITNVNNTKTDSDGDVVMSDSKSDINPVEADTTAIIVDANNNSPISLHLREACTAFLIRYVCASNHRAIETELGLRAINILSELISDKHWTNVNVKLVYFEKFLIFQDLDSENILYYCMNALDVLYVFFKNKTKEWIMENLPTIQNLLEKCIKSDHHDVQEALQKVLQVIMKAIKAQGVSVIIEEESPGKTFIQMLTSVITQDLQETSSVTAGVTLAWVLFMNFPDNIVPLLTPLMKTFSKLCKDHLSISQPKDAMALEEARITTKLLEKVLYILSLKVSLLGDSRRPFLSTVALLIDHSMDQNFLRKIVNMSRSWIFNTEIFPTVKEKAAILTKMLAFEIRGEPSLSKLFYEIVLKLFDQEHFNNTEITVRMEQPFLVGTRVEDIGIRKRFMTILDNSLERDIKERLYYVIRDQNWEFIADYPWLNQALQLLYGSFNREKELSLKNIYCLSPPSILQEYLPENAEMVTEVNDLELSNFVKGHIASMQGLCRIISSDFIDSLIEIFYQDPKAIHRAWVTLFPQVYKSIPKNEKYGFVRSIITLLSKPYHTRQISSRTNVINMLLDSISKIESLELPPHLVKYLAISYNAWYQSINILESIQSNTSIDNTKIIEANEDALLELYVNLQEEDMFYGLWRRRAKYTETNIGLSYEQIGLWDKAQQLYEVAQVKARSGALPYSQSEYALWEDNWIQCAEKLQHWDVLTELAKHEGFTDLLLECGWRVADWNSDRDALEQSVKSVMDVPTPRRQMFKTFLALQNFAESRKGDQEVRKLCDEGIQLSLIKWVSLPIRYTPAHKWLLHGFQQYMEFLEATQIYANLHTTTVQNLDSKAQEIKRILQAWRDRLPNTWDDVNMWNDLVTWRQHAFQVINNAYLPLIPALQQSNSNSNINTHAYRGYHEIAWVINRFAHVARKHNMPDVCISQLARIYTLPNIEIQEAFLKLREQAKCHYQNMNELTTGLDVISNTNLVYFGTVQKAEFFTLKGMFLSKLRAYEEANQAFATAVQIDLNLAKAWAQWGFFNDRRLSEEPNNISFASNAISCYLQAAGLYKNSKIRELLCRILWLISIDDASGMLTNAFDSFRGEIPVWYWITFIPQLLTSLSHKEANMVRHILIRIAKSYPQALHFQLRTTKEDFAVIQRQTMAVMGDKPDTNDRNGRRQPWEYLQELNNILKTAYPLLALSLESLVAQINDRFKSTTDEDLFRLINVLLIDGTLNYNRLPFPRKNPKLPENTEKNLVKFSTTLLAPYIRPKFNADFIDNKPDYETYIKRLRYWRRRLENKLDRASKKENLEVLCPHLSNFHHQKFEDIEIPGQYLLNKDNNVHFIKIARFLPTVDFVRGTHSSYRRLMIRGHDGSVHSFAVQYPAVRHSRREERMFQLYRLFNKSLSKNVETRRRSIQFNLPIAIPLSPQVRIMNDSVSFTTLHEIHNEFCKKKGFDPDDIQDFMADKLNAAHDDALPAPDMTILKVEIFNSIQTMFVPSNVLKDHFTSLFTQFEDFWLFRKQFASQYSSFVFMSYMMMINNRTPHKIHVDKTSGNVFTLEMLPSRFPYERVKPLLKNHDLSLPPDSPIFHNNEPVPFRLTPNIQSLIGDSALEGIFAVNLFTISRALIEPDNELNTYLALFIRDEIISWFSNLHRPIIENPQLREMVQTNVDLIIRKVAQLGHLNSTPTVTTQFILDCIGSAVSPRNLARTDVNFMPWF

binding result (Tra1) | binding result (Spt7) | Binder
binds | binds | Spt3 (natural protein, S. cerevisiae, UniProt P06844 1-337, looked up, Spt3, S. cerevisiae, SAGA subunit (SPT module); source: endogenous, in the native SAGA complex purified from fermented S. cerevisiae cells) MMDKHKYRVEIQQMMFVSGEINDPPVETTSLIEDIVRGQVIEILLQSNKTAHLRGSRSILPEDVIFLIRHDKAKVNRLRTYLSWKDLRKNAKDQDASAGVASGTGNPGAGGEDDLKKAGGGEKDEKDGGNMMKVKKSQIKLPWELQFMFNEHPLENNDDNDDMDEDEREANIVTLKRLKMADDRTRNMTKEEYVHWSDCRQASFTFRKNKRFKDWSGISQLTEGKPHDDVIDILGFLTFEIVCSLTETALKIKQREQVLQTQKDKSQQSSQDNTNFEFASSTLHRKKRLFDGPENVINPLKPRHIEEAWRVLQTIDMRHRALTNFKGGRLSSKPIIM
binds | binds | Taf12 (natural protein, S. cerevisiae, UniProt Q03761 1-539, looked up, Taf12, S. cerevisiae, SAGA subunit (TAF module); source: endogenous, in the native SAGA complex purified from fermented S. cerevisiae cells) MSSNPENSGVNANNNTGTGNADAITGAQQNMVLQPRQLQEMAAKFRTLLTEARNVGETTPRGKELMFQAAKIKQVYDALTLNRRRQQAAQAYNNTSNSNSSNPASIPTENVPNSSQQQQQQQQQTRNNSNKFSNMIKQVLTPEENQEYEKLWQNFQVRHTSIKEKETYLKQNIDRLEQEINKQTDEGPKQQLQEKKIELLNDWKVLKIEYTKLFNNYQNSKKTFYVECARHNPALHKFLQESTQQQRVQQQRVQQQQQQQQQQQQQQQQQQQQQQQRQGQNQRKISSSNSTEIPSVTGPDALKSQQQQQNTITATNNPRGNVNTSQTEQSKAKVTNVNATASMLNNISSSKSAIFKQTEPAIPISENISTKTPAPVAYRSNRPTITGGSAMNASALNTPATTKLPPYEMDTQRVMSKRKLRELVKTVGIDEGDGETVIDGDVEELLLDLADDFVTNVTAFSCRLAKHRKSDNLEARDIQLHLERNWNIRIPGYSADEIRSTRKWNPSQNYNQKLQSITSDKVAAAKNNGNNVASLNTKK
